Measurements as given in publication PMC3040281 (Biochemistry, 2011).

T1: YghU (Escherichia coli, UniProt Q46845)
T1 sequence (Q46845 1-288): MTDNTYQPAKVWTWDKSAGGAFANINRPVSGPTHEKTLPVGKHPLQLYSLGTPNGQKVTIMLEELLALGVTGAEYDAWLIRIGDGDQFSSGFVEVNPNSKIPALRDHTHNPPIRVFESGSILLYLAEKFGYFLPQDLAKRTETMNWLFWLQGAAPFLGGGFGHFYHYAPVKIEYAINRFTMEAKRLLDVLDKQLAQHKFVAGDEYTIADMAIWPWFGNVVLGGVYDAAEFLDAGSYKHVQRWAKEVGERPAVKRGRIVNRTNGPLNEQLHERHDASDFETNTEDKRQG


Columns and labels:
YghU = biological target: T1, YghU; assay: intrinsic protein fluorescence titration, single-site fit; type: binding
purified protein [1] = substrate: CC(C)(OO)c1ccccc1; assay: purified protein; type: biochemical, Escherichia coli; details: GSH co-substrate, 100 mM KH2PO4, pH 7.0, 25 °C
purified protein [2] = substrate: CCCCC[C@@H](/C=C/C=C\C/C=C\C/C=C\CCCC(=O)O)OO; assay: purified protein; type: biochemical, Escherichia coli; details: 3 mM GSH, 100 mM KH2PO4, pH 7.0, 0.005% BSA, 25 °C
purified protein [3] = substrate: CCCCC[C@@H](/C=C/C=C\CCCCCCCC(=O)O)OO; assay: purified protein; type: biochemical, Escherichia coli; details: GSH co-substrate, 100 mM KH2PO4, pH 7.0, 25 °C
SEC = biological target: the molecule itself; assay: SEC

Kd (YghU) [µM]	Molecule	Km (purified protein [1]) [µM]	kcat (purified protein [1]) [s⁻¹]	kcat/Km (purified protein [1]) [M⁻¹ s⁻¹]	Km (purified protein [2]) [µM]	kcat (purified protein [2]) [s⁻¹]	kcat/Km (purified protein [2]) [M⁻¹ s⁻¹]	Km (purified protein [3]) [µM]	kcat (purified protein [3]) [s⁻¹]	kcat/Km (purified protein [3]) [M⁻¹ s⁻¹]	stoichiometry N (SEC)
1000 ± 100	NCCCCNCCCNC(=O)CNC(=O)[C@H](CS)NC(=O)CC[C@H](N)C(=O)O [GspSH]										
	YghU (enzyme, Escherichia coli K-12, UniProt Q46845 1-288, looked up) MTDNTYQPAKVWTWDKSAGGAFANINRPVSGPTHEKTLPVGKHPLQLYSLGTPNGQKVTIMLEELLALGVTGAEYDAWLIRIGDGDQFSSGFVEVNPNSKIPALRDHTHNPPIRVFESGSILLYLAEKFGYFLPQDLAKRTETMNWLFWLQGAAPFLGGGFGHFYHYAPVKIEYAINRFTMEAKRLLDVLDKQLAQHKFVAGDEYTIADMAIWPWFGNVVLGGVYDAAEFLDAGSYKHVQRWAKEVGERPAVKRGRIVNRTNGPLNEQLHERHDASDFETNTEDKRQG	16 ± 2	0.05 ± 0.001	3500 ± 400	28 ± 4	0.096 ± 0.004	3400 ± 1500	130 ± 30	0.19 ± 0.02	1500 ± 400	2
